{"source": "paper PMC10696396", "about": "(2023)", "binders": {"B1": {"name": "His6-SUMO-HilE (natural protein)", "chain": "MDAIYLKLDGIEGESRIKGFENQIKLIAYNHNPTKRESGEARGTYIGGLTLTKPVDLATPGLYEHYCNGKTVKEGVLTLCRRDKGAMLPFIIYTLTNVRISRMSNHGDAEGSATETVDLVYSHIRWDIPALASKSKTRRPLHRQALWR", "modifications": "RED-tris-NTA 2nd Generation dye bound to the His6 tag"}}, "experiment_in_all_cases": "MST", "key": {"HilD K279M": {"target": "HilD K279M"}, "HilD S216I/S218D": {"target": "HilD S216I/S218D"}, "[1]": {"target": "EYFP-HilD E102A/K264A/R267A"}, "His6-SUMO-HilE": {"target": "B1"}}}
{"binder": "B1", "values": [{"measurement": "Kd", "setting": "HilD K279M", "result": 2.12, "unit": "µM"}, {"measurement": "Kd", "setting": "HilD S216I/S218D", "result": 1.16, "unit": "µM"}]}
{"binder": "HilE (natural protein) MDAIYLKLDGIEGESRIKGFENQIKLIAYNHNPTKRESGEARGTYIGGLTLTKPVDLATPGLYEHYCNGKTVKEGVLTLCRRDKGAMLPFIIYTLTNVRISRMSNHGDAEGSATETVDLVYSHIRWDIPALASKSKTRRPLHRQALWR", "values": [{"measurement": "Kd", "setting": "[1]", "result": 1.68, "unit": "µM"}]}
{"binder": "HilD (full-length, unfused) (natural protein) MENVTFVSNSHQRPAADNLQKLKSLLTNTRQQIKSQTQQVTIKNLYVSSFTLVCFRSGKLTISNNHDTIYCDEPGMLVLKKEQVVNVTLEEVNGHMDFDILEIPTQRLGALYALIPNEQQTKMAVPTEKAQKIFYTPDFPARREVFEHLKTAFSCTKDTSKGCSNCNNKSCIENEELIPYFLLFLLTAFLRLPESYEIILSSAQITLKERVYNIISSSPSRQWKLTDVADHIFMSTSTLKRKLAEEGTSFSDIYLSARMNQAAKLLRIGNHNVNAVALKCGYDSTSYFIQCFKKYFKTTPSTFIKMANH", "values": [{"measurement": "Kd", "setting": "His6-SUMO-HilE", "result": 1.89, "unit": "µM"}]}
